Laboratory results reported in US8278415B2, “Dimeric high affinity EGFR constructs and uses thereof” (Centocor, Inc., priority 2006, dated 2012).

Key:
sEGFR-MMB = biological target: T1, sEGFR-MMB (Homo sapiens, UniProt P00533); assay: P190-MMB constructs, solid phase assays (BIAcore and ELISA) on immobilized sEGFR-MMB; type: binding
T1 construct: made in house; host or cells: HEK 293E
Excerpt: In contrast, 190-MMB as the 4316 construct, binds EGFR and the presence of excess EGF promotes its binding.

A431 cells = assay: FACS of P190-MMB constructs or cetuximab on A431 cells; type: cell-based, human; settings: excess EGF
EGFR = biological target: T2, EGFR (Homo sapiens, UniProt P00533); assay: FACE (Fast Activated Cell-based ELISA) of EGFR phosphorylation
T2 construct: endogenous in cells

B1: 4316: P190-MMB construct with the longest linker, Flex GGGGS, n 4, SEQ ID NO: 81 (protein)
chain: GGDPCTWEVWGRECLQGGGGSGGGGSGGGGSGGGGSCPPCPAPEAAGGPSVFLFPPKPKDTLMISRTPEVTCVVVDVSQEDPEVQFNWYVDGVEVHNAKTKPREEQFNSTYRVVSVLTVLHQDWLNGKEYKCKVSNKGLPSSIEKTISKAKGQPREPQVYTLPPSQEEMTKNQVSLTCLVKGFYPSDIAVEWESNGQPENNYKTTPPVLDSDGSFFLYSRLTVDKSRWQEGNVFSCSVMHEALHNHYTQKSLSLSLGK
on-rate (sEGFR-MMB; BIAcore, no dissociation constant obtained): much more pronounced on-rate than the other constructs
binding in solid phase assays and cell-based FACS (sEGFR-MMB; comparison of linker lengths): best binder
effect of EGF on binding to A431 (A431 cells): enhanced binding
interference with EGF activation of EGFR (EGFR): nor interfere with EGF activation of EGFR
EGFR phosphorylation (receptor activation) (EGFR; absence of EGF): did not induce EGFR phosphorylation
